Laboratory results: patent publication US20110269161

Assays:
[1] = molecular target: T1, peptide B6 (PKRKVSSAEGPFR), derived from nonhistone chromosomal protein HMG-14 (Ser6)
T1 chain: PKRKVSSAEGPFR

[2] = molecular target: T2, peptide C11 (NKRRGSVPILPFR), derived from erythrocyte membrane protein band 4.2 (Ser247)
T2 chain: NKRRGSVPILPFR

[3] = molecular target: T3, peptide C6 (TKRSGSVYEPPFR), derived from phosphorylase b kinase regulatory subunit beta (Ser26)
T3 chain: TKRSGSVYEPPFR

[4] = molecular target: T4, peptide E11 (RKRLISSVEDPFR), derived from tuberin (Ser1798)
T4 chain: RKRLISSVEDPFR

[5] = molecular target: T5, peptide F6 (RIRTQSFSLQPFR), derived from nitric-oxide synthase, endothelial (Ser1176)
T5 chain: RIRTQSFSLQPFR

[6] = molecular target: T6, peptide G5 (SKRRNSEFEIPFR), derived from tryptophan 5-hydroxylase 1 (Ser58)
T6 chain: SKRRNSEFEIPFR

B1: 90 kDa ribosomal S6 kinases 1 (RSK1, 1-735), purified human active kinase (protein)
chain: MPLAQLKEPWPLMELVPLDPENGQTSGEEAGLQPSKDEGVLKEISITHHVKAGSEKADPSHFELLKVLGQGSFGKVFLVRKVTRPDSGHLYAMKVLKKATLKVRDRVRTKMERDILADVNHPFVVKLHYAFQTEGKLYLILDFLRGGDLFTRLSKEVMFTEEDVKFYLAELALGLDHLHSLGIIYRDLKPENILLDEEGHIKLTDFGLSKEAIDHEKKAYSFCGTVEYMAPEVVNRQGHSHSADWWSYGVLMFEMLTGSLPFQGKDRKETMTLILKAKLGMPQFLSTEAQSLLRALFKRNPANRLGSGPDGAEEIKRHVFYSTIDWNKLYRREIKPPFKPAVAQPDDTFYFDTEFTSRTPKDSPGIPPSAGAHQLFRGFSFVATGLMEDDGKPRAPQAPLHSVVQQLHGKNLVFSDGYVVKETIGVGSYSECKRCVHKATNMEYAVKVIDKSKRDPSEEIEILLRYGQHPNIITLKDVYDDGKHVYLVTELMRGGELLDKILRQKFFSEREASFVLHTIGKTVEYLHSQGVVHRDLKPSNILYVDESGNPECLRICDFGFAKQLRAENGLLMTPCYTANFVAPEVLKRQGYDEGCDIWSLGILLYTMLAGYTPFANGPSDTPEEILTRIGSGKFTLSGGNWNTVSETAKDLVSKMLHVDPHQRLTAKQVLQHPWVTQKDKLPQSQLSHQDLQLVKGAMAATYSALNSSKPTPQLKPIESSILAQRRVRKLPSTTL
in vitro peptide phosphorylation by recombinant kinase (KAYAK, LC-MS) [1]: recombinant RSK1 could robustly phosphorylate peptides B6, C6, C11 and G5 in vitro | in vitro peptide phosphorylation by recombinant kinase (KAYAK, LC-MS) [2]: recombinant RSK1 could robustly phosphorylate peptides B6, C6, C11 and G5 in vitro | in vitro peptide phosphorylation by recombinant kinase (KAYAK, LC-MS) [3]: recombinant RSK1 could robustly phosphorylate peptides B6, C6, C11 and G5 in vitro | phosphorylation by purified kinase (KAYAK profiling of 90 peptides) [4]: is preferably phosphorylated by purified RSK1 enzyme | peptide phosphorylation, 100 µM peptide reacted individually [5]: both RSK and Akt demonstrated strong phosphorylation | in vitro peptide phosphorylation by recombinant kinase (KAYAK, LC-MS) [6]: recombinant RSK1 could robustly phosphorylate peptides B6, C6, C11 and G5 in vitro
